# Reference: the DeepSol protein solubility set
# Assay: soluble on expression in E. coli; label from the status in PepcDB or PDB records
row,Sequence,soluble on expression in E. coli
1,MSPMRIGLVCIRGSVPAFENFGFLPTDIVGSNGLVNGSRAHRVLDGIIIPGGSIVESGSLSPELAFEIRRMASDGKFVLGICSGFQALAERTDIGRKSPCPVYREGLGLLNVTFHPMISNDRVEATITGESFLTSGMSGERITGFHCHTYGEIRGDAPEIMKSRIVRADYHERPGEILSGVCSDDGNVAGTMVHGCLDENQTLVSNILKFLDADETARERILEANRKLREALRSELGISTGIRVMDRGGTRGTPPAIMIASTGSDSGKTFILTGLAGALRRRGLRVGVIKVGPDVRDIVPALYLIKEPMEEHSSIRIGRLGWMELRDVLESVRGRYDIILIEGVMSILTGLLNDITPYSGAEIALAAGIPLIMVAGCSKGGIESAVVDLDAHISVLEGLGLEVSCGILNRVYDMDIFERASGGRYLAIPRVEMSERGGTPEVEIKLEDFCLKAMETVEEHLDVDTLISFAKKPEFRGYMGPEEIKKVFSPLEHHHHHH,not soluble
2,MNSDPTRERILHGLITLYILKELVKRPMHGYELQKSMFETTGQALPQGSIYILLKTMKERGFVISESSVNEKGQQLTVYHITDAGKKFLCDHSQALQLARKIIDDLLSTVDIIENRN,soluble
3,MNLMLCCTPLQVLIARKIIELHPNEQFFGVMFGGVWDKKRTLYASKLAEVCSDSMNIDTGKDLKGFDFLKLMRQLKNKITHKGFDKVFLANLNSLWLQTYLSHVSFKELYTFDDGSDNIFPHPNLLREPGTFKYKLIKAFIGDKYSVNKLFKKIKKHYTVYPNYKNIVSNIEPISLWDNQIDCEIDGEVSFFIGQPLLNTKEENISLIKKLKDQIPFDYYFPHPAEDYRVDGVNYVESELIFEDYVFKHLSNKIIIYTFFSSVAFNLLSHPNVEIRFIRTSIPRWQFCYDSFPDLGLTIYKEILEHHHHHH,soluble
4,MLKHLLPLGTRDEFGRRARTKQHLIAVIQAHFKQRGLAPIATPLLENEAVFDPYQMGNYQLYRLFGNDGRTLVLRPDMTLPVARFISATNVPLPQKFGYVGDIFRVSRQLSGSYNQITQAGVELVGYASLKAEFECLTIANQLSSELIADAVEIELGDAQFAQRVVASLTGDEGEQQAILTALFDKQVPRYTKLIAKYRAQPLYDFLKAWPRLFGRPECIFKELAAAPLPETVQPSLKRLQTVVAWMQQTMPEQVISVDLSSQAPQKYYTGLTFRGYSQAGAGYLFSGGRYDKLLTNFQAEAEPAVGMGLNVDLLTTLATDQQTAYAEQLIYFEPEQWSQAEAYLAKQPHAILSLADDLAGARIEAQRLNAQLIDLTGGMTND,not soluble
5,MGSDKIHHHHHHMSFRMIEPETIDDAAFVSSTVPETDAPVWDASTDYPFSDPDNPEEVIVEVGQHAIYRAVAPSGPSHGGAVDPATDTGNTKWVKIRSTNRWRVFDEYIGDPSVQANSAQWVITAPKVIDSVSLFGLYALSVTVLVRDSGGAEVYNQTYSLQDESGVVDLYTYLTSPIILSDRLVITDIPPYAGAKVTVTAEASGEDVEVGQIVIGRKEEIGVTIDEIPLSIQDFSRKERDPDFGRVSLLEKDFADEMPVAFVFPTSRASYLKSRLASRRAKLTVYSSDGPYKANEFSVYGFYQSFQVVPRIGSESEGILELESIT,not soluble
6,MVMEVDEPAVAATTSQNQPQEHANDFDMDTSEGPIENDETFEPVDQINWKFNQVKGNIDADVHTEADVISCVEFSHDGEYLATGDKGGRVVIFQRDQSGKYVKGVRSREYNVYSTFQSHEPEFDYLKSLEIDEKINQIRWLKKKNAANFILSTNDKTIKLWKISERERKIGDDAWNLPRTNRINTSSFRGRLQIPSIVPMELIVEASPRRVYGNAHTYHVNSISVNSDQETFLSADDLRVNLWNLEITNESFNIVDIKPANMEELTEVITAAEFHPTQCNWFVYSSSKGSIRLCDMRDRALCDAYAKIFEEPEDPQSRSFFSEIIASVSDVKFSHNGRYLLTRDYLTVKVWDLNMESQPVETYPVHNYLRTKLCALYENDSIFDKFECDWSGDDKHILTGSYHNLFRSYARGNNQDAKTWEARPQEPHSQLRSRFVVPSAKRKRNNLSSSGETTEEDLSSDQLQFDRKILHTAWHPKDNIIALAATNNLYIFSDV,not soluble
7,MNLVKLLANNWQPIAIIALVGTGLAVSHHQGYKSAFAKQQAVIDKMERDKAQALLLSAQNYARELELARAEAKKYEVKAHAVGMALAKKQAEVSRLKTERDLCKIPFPPDSRNPNTGFRLFSPQIPPNFTQIPP,not soluble
8,MGSDKIHHHHHHLAIFIQYIDTLKLVSIGKNDMYSIEQLEAFVATVKTGSFSSAARALNKAQSVISQHVINLEIDCNSELFDRSGRYPQLTPAGKKLLPHAQVLLSQHQRLRDCAQSLDQQAISELTIGLDEGIPLQKLFNIINELEAKFPTITLEFLTASSIDIIDMIDTERAVTGIIFSELTIPAHIDFESIGSIKFDMYVASTHLLAQQIYDNLAHLKLHRQLLIRSRNTKSSSFQFAISPDVWYADNYYILLELALQGHGWCLLPNHIANHYVDSGQLVMLPSEFKEIGWQANVDVIQHHRYSHEPVFKQLRHSLRQLLTYSA,not soluble
9,MSWQAYVDTSLLGTGKIDRAAIVSRAGDSVWAASAGFNLSPQEIQGLAAGFQDPPSMFGTGIILAGQKYITIRAEGRSIYGKLQKEGIICVATKLCILVSHYPETTLPGEAAKITEALADYLVGVGY,soluble
10,MDNIVTQNIKFESEPNYYLRGYHLFDISPLNGLKCEITDEFETDKIHLKIKLDWDQQEIKKITGFIQLSYDGHQLKPIDSNFDKRGGICIMTVPKYINAYRWSFSFDLKLHRYPAKPPQISHDLNPQVRSYDTMFEPSRKHDAVLLIGEKKLHVNKAFLSYHSDYFCDLFAEKFDEKNGIPIENVTYENFGLLMSIIYPEAAFSNHQNAEVLLELGNRFKIPAVMRHVENQIIRDTKFPNERLIFLADKYELQKLLAMEIQKMESFDQAKKFKGSDDYSQLSDATKAKILDRLIELS,not soluble
11,MATFKDFRNNVKPNWCPGCGDFSVQAAIQKAAANIGLEPEEVAIITGIGCSGRLSGYINSYGVHSIHGRALPLAQGVKMANKDLTVIASGGDGDGYAIGMGHTIHALRRNMNMTYIVMDNQIYGLTKGQTSPSSAVGFVTKTTPKGNIEKNVAPLELALSSGATFVAQGFSSDIKGLTKLIEDAINHDGFSFVNVFSPCVTYNKINTYDWFKEHLTSVDDIENYDSTDKQLATKTVIEHESLVTGIVYQDKETPSYESQIKELDDTPLAKRDIKITEDTFNALTEQFI,not soluble
12,MSLRDLKTLLIVIDGVSYSVFNQFRYNLDTMNNLIENGSFGKLESVFPTITPVALASLFTGYLPLNHGITSTKIFIKGNSLSKPLSAHSSTPLKVDPIWYLLAKKGYKVVVASAPQALPDKWKLKNLTLFDPYKSKIKECSDGALLNIGNTTINEVNFDIESNNNEYTIKITDIENNTLSLKLRQNEWTSPLEVIMGCKGKEMKGTFRLKGLSNGVYLTPVSFLIPSWSNNQELQNEIWENVVKKYGMLLDGDYISLKSNIIGFSEYYETLKFAYEFFYNYSLYLLKREEWDFAITYLPIVDNIQHLLFGVDDSQSLDYVFQVYKMADNFVKAHIELADNIIICSDHGINKVKKRLYLNKFLEELNVLKTVDDKKIDWKRTKAYYGGGGIIRINLREREKFGIVGKKEFNKLIKYLTINLERLEDPDTGERIFTVIYSNETPASDRQGDIMIDGVNPKYSISSNIEKDTIFENVIPYRTTTADHGYYRNDDINGIIIFYGKNFTKKQVNMKIVDVTPTILKLYGINCKSDGKIVNEVFKNGHADSTKEGHHHHHH,not soluble
13,MTYKGYLIDLDGTIYKGKDRIPAGEDFVKRLQERQLPYILVTNNTTRTPEMVQEMLATSFNIKTPLETIYTATLATIDYMNDMKRGKTAYVIGETGLKKAVAEAGYREDSENPAYVVVGLDTNLTYEKLTLATLAIQKGAVFIGTNPDLNIPTERGLLPGAGAILFLLEKATRVKPIIIGKPEAVIMNKALDRLGVKRHEAIMVGDNYLTDITAGIKNDIATLLVTTGFTKPEEVPALPIQPDFVLSSLAEWDFDER,soluble
14,GMNDRKILVAYFSCSGVTKAVAEKLAAITGADLYEIKPEVPYTEADLDWNDKKSRSSVEMRDALSRPAISGTLFHPEKYEVLFVGFPVWWYIAPTIINTFLESYDFAGKIVVPFATSGGSGIGNCEKNLHKAYPDIVWKDGKLLNGQITRDLVTEWFEKIRL,soluble
15,ALCAICGDRATGKHYGASSCDGCKGFFRRSVRKNHMYSCRFSRQCVVDKDKRNQCRYCRLKKCFRAGMKKEAVQNERD,soluble
16,MGSDKIHHHHHHMKVIKFGGSSLASGIQLNKVFQLVAEDSERKIVVVSAPGKRFKDDTKVTDLLIDCAAKALLGEDTSELFEAVIARYAGIALDTGMDDAIITQIRADLQKTISSDKSDPDKFLDRMKASGEDNNAKLIAAYFKFKGLNANYVNPKDAGLFVTDEHASAQVLPESYDRLFALREREGIIVFPGFFGYTKDGEISTFSRSGSDITGAIVANGAQAELYENFTDVDAVYAVNPAIVKNPKKVLELTYREMRELSYAGFSVFHDEALIPAFHAGIPVHIKNTNNPDSCGTRVVHERENNNGPVVGIASDDGFCSIYISKYLMNREIGFGRKVLQILEDAGLNYEHMPSGIDDLTIIIRENQFGEDTERTIMTRLKEELNADQVIMQHGISLIMVVGEAMRHNVGITSRASKALSDAKVNIEMINQGSSEVSIMFGVKEEQENTAVRALYNEFFSEVLV,not soluble
17,MSLPRFSNVSYEQYWALREQSDEWLEYIDGAVYMAPSPSIKHQLVSSNLHTELGLYFRGKPCNVFAAPTDIELASDKFPDRKVVIPDLSVICDSKGFTETKYVGVPTLIVEILSPSNQAHDLVTKFNLYMAYGVKEYWIVNPMKEAITVYTLNEEGLYEQADVKAGTGVVQSACFPRLEVALEDVFR,not soluble
18,MDYTIVVSATASDAAPLKFLAPYSGCAIGEHFLDNGKHALIIFDDLSKKAANCHVVCRTDEIELDILNRMEEDIKLHPLTWYDIWSSLETKIKVVRARIPKSLSRR,not soluble
19,MQKKSIYVAYTGGTIGMQRSDNGYIPVSGHLQRQLALMPEFHRPEMPDFTIHEYAPLIDSSDMTPEDWQHIANDIQQNYDLYDGFVILHGTDTMAFTASALSFMLENLAKPVIITGSQIPLAELRSDGQTNLLNALYLAANHPVNEVSLFFNNQLFRGNRTTKAHADGFDAFASPNLSVLLEAGIHIRRQSSVVSPTSNGPLIVHRITPQPIGVVTIYPGISGAVVRNFLLQPVKALILRSYGVGNAPQKAELLDELKNASDRGIVVVNLTQCISGSVNMGGYATGNALAQAGVISGFDMTVEAALTKLHYLLSQSLSPNEIRQLMQQNLRGELTDTQ,soluble
20,MGSDKIHHHHHHMSKVFIATANAGKAHDADIFSVSACNSFTVSCSGDGYLKVWDNKLLDNENPKDKSYSHFVHKSGLHHVDVLQAIERDAFELCLVATTSFSGDLLFYRITREDETKKVIFEKLDLLDSDMKKHSFWALKWGASNDRLLSHRLVATDVKGTTYIWKFHPFADESNSLTLNWSPTLELQGTVESPMTPSQFATSVDISERGLIATGFNNGTVQISELSTLRPLYNFESQHSMINNSNSIRSVKFSPQGSLLAIAHDSNSFGCITLYETEFGERIGSLSVPTHSSQASLGEFAHSSWVMSLSFNDSGETLCSAGWDGKLRFWDVKTKERITTLNMHCDDIEIEEDILAVDEHGDSLAEPGVFDVKFLKKGWRSGMGADLNESLCCVCLDRSIRWFREAGGK,not soluble
